Source: US20090023672, “AGE-2 APTAMER” (KURUME UNIVERSITY, published 2009)

Target: AGE-2 (glyceraldehyde-derived advanced glycation end product of human serum albumin) (Homo sapiens, UniProt P02768 P02768:25-609, HSA glycated with D-glyceraldehyde at 37 C for 7 days, dialysed against PBS)
Assay: AGE-2 fluorescence attenuation, 100 ug/mL AGE-2, 25 nM aptamer
Settings: tags: HSA from Sigma; immobilised on SulfoLink beads for SELEX
Protocol: First, for measuring fluorescence properties of AGE-2, wavelengths of AGE-2 were determined for excitation and […] using a spectrofluorometer (FP-777: JASCO Corporation). […] Subsequently, the fluorescence intensity was measured with 25 to 100 μg/mL of AGE-2 at the excitation wavelength of 380 nm, and a calibration curve was prepared (FIG. 3A).
Then, to each aptamer (SEQ ID NOs: 1 to 15), 100 μg/mL of the AGE-2 was added at a final concentration of 25 to 100 nM, and the fluorescence intensity was measured (see FIGS. 3B and C). Based on attenuation in the fluorescence intensity of AGE-2 when the aptamer was added at 25 nM, the weight (ng) of the bound AGE-2 was calculated per mole (nmol) of the aptamer.

Chain of AGE-2 (glyceraldehyde-derived advanced glycation end product of human serum albumin) (P02768 25-609, stated change not applied, one chain of several): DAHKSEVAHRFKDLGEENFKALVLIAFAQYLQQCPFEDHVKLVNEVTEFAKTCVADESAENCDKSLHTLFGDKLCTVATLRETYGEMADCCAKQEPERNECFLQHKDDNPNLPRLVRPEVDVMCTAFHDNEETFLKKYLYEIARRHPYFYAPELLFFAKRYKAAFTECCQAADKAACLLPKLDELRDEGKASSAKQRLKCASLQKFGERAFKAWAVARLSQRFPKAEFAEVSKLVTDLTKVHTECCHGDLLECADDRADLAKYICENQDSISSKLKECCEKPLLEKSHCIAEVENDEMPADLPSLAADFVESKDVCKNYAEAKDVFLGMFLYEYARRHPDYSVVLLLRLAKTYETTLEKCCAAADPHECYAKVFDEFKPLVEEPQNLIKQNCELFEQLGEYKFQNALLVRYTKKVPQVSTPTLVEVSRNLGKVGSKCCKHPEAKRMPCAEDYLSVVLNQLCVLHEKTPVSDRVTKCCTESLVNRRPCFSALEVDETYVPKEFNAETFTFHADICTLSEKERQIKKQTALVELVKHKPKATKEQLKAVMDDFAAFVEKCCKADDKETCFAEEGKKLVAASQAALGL

| Binder | binding signal |
| --- | --- |
| AGE-2 aptamer 7 (ssDNA) DNA: CCACACTGCACTAAACCAGCGTCCCGGACCATCACAACCTCTGCCCACTAGCCCCT | 146 ng AGE-2 bound per nmol aptamer |
| AGE-2 aptamer 5 (ssDNA) DNA: CAAGCGCTCCATCCACCGACATACCTACCAAACACTCTCCTTGCCCATAAAACCAC | 143 ng AGE-2 bound per nmol aptamer |
| AGE-2 aptamer 8 (ssDNA) DNA: AACTAGCCCGAGCCACAATCCCATAACAAGCGTGACCACACTATCCTGTCTTCCC | 175 ng AGE-2 bound per nmol aptamer |
| AGE-2 aptamer 11 (ssDNA) DNA: CCCAAGCACAATAGCCACACCCACGACCCACCCTCATATTCCGACCACGCTCCC | 137 ng AGE-2 bound per nmol aptamer |
| AGE-2 aptamer 9 (ssDNA) DNA: TAACTCACTCCATACTCACTTGCTGATTCGCCAACAACACACCCTTAAACAGTCCC | 117 ng AGE-2 bound per nmol aptamer |
| AGE-2 aptamer 14 (ssDNA) DNA: CTGAATACCAACGTACCCCCTCCCAAGTCCCCCTACCCACGCTAAACTCAACCTCA | 158 ng AGE-2 bound per nmol aptamer |
| AGE-2 aptamer 13 (ssDNA) DNA: CCTCAACACACCTCTAACCAACCCTCAGCCCAGCACAACACCCCCCAAACCGACAC | 175 ng AGE-2 bound per nmol aptamer |
| AGE-2 aptamer 6 (ssDNA) DNA: CCCGCCATTCCCCTACATAACACCTACCCATCTCCCTTCCCAGTTAATCACCGC | 202 ng AGE-2 bound per nmol aptamer |
| AGE-2 aptamer 15 (ssDNA) DNA: TACAGCCCCCCAACCCACCACCGCCGTAGATAACCACCCACCAACGATATCCCACT | 271 ng AGE-2 bound per nmol aptamer |
| AGE-2 aptamer 4 (ssDNA) DNA: CCAGCCTCGATACCATACCCACCAACCCAACCAGACTCCACACACCCACGCGTCTC | 210 ng AGE-2 bound per nmol aptamer |
| AGE-2 aptamer 2 (ssDNA) DNA: ACCACTGCACGACCCCCACCAGTCCCACTCGCAGCGTCCATGGCCCCCACGCCCCA | 175 ng AGE-2 bound per nmol aptamer |
| AGE-2 aptamer 3 (ssDNA) DNA: CGCCCCCACACCACCGCCACGACCCCACAATCCCCCGAGGTCCCCCGCGTCCACAC | 260 ng AGE-2 bound per nmol aptamer |
| AGE-2 aptamer 10 (ssDNA) DNA: ATAACCCCGACGTACACGCCAACTATGCCCACAACCCGCCATAACCCACCACCTTC | 134 ng AGE-2 bound per nmol aptamer |
